Assay results from article PMC2777315 (PLoS Pathogens, 2009).

How the values were obtained:
Settings in all cases: both partners purified
[1] = target: T1, GST-IlsA fusion protein (IlsA, iron-regulated leucine-rich surface protein of Bacillus cereus ATCC 14579) (Bacillus cereus ATCC 14579, UniProt Q81G77 1-760); test: SPR
T1 construct: also called IlsA-GST; purified IlsA; source: E. coli BL-21, purified (pellet solubilised in 8 M urea, dialysed, glutathione Sepharose 4B)
T1 sequence: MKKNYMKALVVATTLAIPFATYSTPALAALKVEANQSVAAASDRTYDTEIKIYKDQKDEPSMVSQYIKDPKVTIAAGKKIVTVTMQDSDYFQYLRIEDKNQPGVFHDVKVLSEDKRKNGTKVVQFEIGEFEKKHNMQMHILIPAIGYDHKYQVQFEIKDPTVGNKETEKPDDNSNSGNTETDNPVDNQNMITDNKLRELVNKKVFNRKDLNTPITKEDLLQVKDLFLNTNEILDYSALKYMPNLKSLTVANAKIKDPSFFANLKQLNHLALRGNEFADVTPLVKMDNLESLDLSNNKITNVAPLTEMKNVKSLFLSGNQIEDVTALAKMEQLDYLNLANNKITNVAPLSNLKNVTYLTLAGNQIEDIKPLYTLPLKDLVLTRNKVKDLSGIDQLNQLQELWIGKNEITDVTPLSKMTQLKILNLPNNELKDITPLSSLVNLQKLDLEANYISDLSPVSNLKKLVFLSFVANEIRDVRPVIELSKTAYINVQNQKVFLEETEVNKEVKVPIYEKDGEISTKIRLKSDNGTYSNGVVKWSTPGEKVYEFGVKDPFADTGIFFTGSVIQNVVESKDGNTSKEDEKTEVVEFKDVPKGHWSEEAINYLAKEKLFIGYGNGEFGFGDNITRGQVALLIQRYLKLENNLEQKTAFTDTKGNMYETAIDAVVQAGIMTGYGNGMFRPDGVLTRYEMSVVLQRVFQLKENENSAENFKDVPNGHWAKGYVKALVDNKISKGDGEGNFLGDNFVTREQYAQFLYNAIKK

[2] = target: T1, GST-IlsA fusion protein (IlsA, …); test: ELISA
[3] = target: T1, GST-IlsA fusion protein (IlsA, …); test: ELISA; hemoglobin or ferritin coated on plates in increasing amounts (0-180 nM), 0.1 M phosphate buffer pH 7.4; IlsA added at 30 nM, 2 h at 37°C; detected with polyclonal anti-IlsA; Kd estimated with Origin
[4] = target: T1, GST-IlsA fusion protein (IlsA, …); test: SPR; BIAcore 3000; GST-IlsA captured by anti-GST antibody on a CM5 chip; ligands injected at 200 nM for 8 min, dissociation 10 min; 0.1 M phosphate buffer pH 7.4; 20°C; data did not fit a 1:1 model, indicative koff from the dissociation phase only

B1: ferritin (complex)
chain 1: MSSQIRQNYSTEVEAAVNRLVNLYLRASYTYLSLGFYFDRDDVALEGVCHFFRELAEEKREGAERLLKMQNQRGGRALFQDLQKPSQDEWGTTLDAMKAAIVLEKSLNQALLDLHALGSAQADPHLCDFLESHFLDEEVKLIKKMGDHLTNIQRLVGSQAGLGEYLFERLTLKHD
chain 2: MTTAFPSQVRQNYHQDSEAAINRQINLELHASYVYLSMSFYFDRDDVALKNFAKYFLHQSHEEREHAEKLMKLQNQRGGRIFLQDIKKPDQDDWENGLKAMECALHLEKNVNESLLELHKLATDKNDPHLCDFLETHYLNEQVKAIKELGDHVTNLRRMGAPESGMAEYLFDKHTLGECDES
notes: source: bought: Sigma-Aldrich
Binder B1 has a koff [1] of 0.00171 s⁻¹ and a Kd [2] of 10 ± 3 nM.

B2: hemoglobin (complex)
chain 1: not shown
chain 2: not shown
With B2 the Kd [3] was 3 ± 1 nM and the koff [4] was 0.00148 s⁻¹.
